Measured values as given in article PMC3197142, “Direct Identification of Insulator Components by Insertional Chromatin Immunoprecipitation” (PLoS ONE, 2011).

B1: MBP-CTCF (natural protein, human, UniProt P49711-1 1-727, looked up)
chain: MEGDAVEAIVEESETFIKGKERKTYQRRREGGQEEDACHLPQNQTDGGEVVQDVNSSVQMVMMEQLDPTLLQMKTEVMEGTVAPEAEAAVDDTQIITLQVVNMEEQPINIGELQLVQVPVPVTVPVATTSVEELQGAYENEVSKEGLAESEPMICHTLPLPEGFQVVKVGANGEVETLEQGELPPQEDPSWQKDPDYQPPAKKTKKTKKSKLRYTEEGKDVDVSVYDFEEEQQEGLLSEVNAEKVVGNMKPPKPTKIKKKGVKKTFQCELCSYTCPRRSNLDRHMKSHTDERPHKCHLCGRAFRTVTLLRNHLNTHTGTRPHKCPDCDMAFVTSGELVRHRRYKHTHEKPFKCSMCDYASVEVSKLKRHIRSHTGERPFQCSLCSYASRDTYKLKRHMRTHSGEKPYECYICHARFTQSGTMKMHILQKHTENVAKFHCPHCDTVIARKSDLGVHLRKQHSYIEQGKKCRYCDAVFHERYALIQHQKSHKNEKRFKCDQCDYACRQERHMIMHKRTHTGEKPYACSHCDKTFRQKQLLDMHFKRYHDPNFVPAAFVCSKCGKTFTRRNTMARHADNCAGPDGVEGENGGETKKSKRGRKRKMRSKKEDSSDSENAEPDLDDNEDEEEPAVEIEPEPEPQPVTPAPPPAKKRRGRPPGRTNQPKQNQPTAIIQVEDQNTGAIENIIVEVKKEPDAEPAEGEEEEAQPAATDAPNGDLTPEMILSMMDR
notes: source: E. coli BL21-CodonPlus(DE3)-RIPL, purified (Amylose resin); not shown: MBP, N-terminal, kept
B2: MBP-p68 (natural protein, human, UniProt P17844-1 1-614, looked up)
chain: MSGYSSDRDRGRDRGFGAPRFGGSRAGPLSGKKFGNPGEKLVKKKWNLDELPKFEKNFYQEHPDLARRTAQEVETYRRSKEITVRGHNCPKPVLNFYEANFPANVMDVIARQNFTEPTAIQAQGWPVALSGLDMVGVAQTGSGKTLSYLLPAIVHINHQPFLERGDGPICLVLAPTRELAQQVQQVAAEYCRACRLKSTCIYGGAPKGPQIRDLERGVEICIATPGRLIDFLECGKTNLRRTTYLVLDEADRMLDMGFEPQIRKIVDQIRPDRQTLMWSATWPKEVRQLAEDFLKDYIHINIGALELSANHNILQIVDVCHDVEKDEKLIRLMEEIMSEKENKTIVFVETKRRCDELTRKMRRDGWPAMGIHGDKSQQERDWVLNEFKHGKAPILIATDVASRGLDVEDVKFVINYDYPNSSEDYIHRIGRTARSTKTGTAYTFFTPNNIKQVSDLISVLREANQAINPKLLQLVEDRGSGRSRGRGGMKDDRRDRYSAGKRGGFNTFRDRENYDRGYSSLLKRDFGAKTQNGVYSAANYTNGSFGSNFVSAGIQTSFRTGNPTGTYQNGYDSTQQYGSNVPNMHNGMNQQAYAYPATAAAPMIGYPMPTGYSQ
notes: human p68 (DDX5), cDNA GenBank NM_004396, inserted downstream of the MBP gene in pMAL-x5c; also called p68/DDX5; source: E. coli BL21-CodonPlus(DE3)-RIPL, purified (Amylose resin); not shown: MBP, N-terminal, kept

Biological target: T1, GST-Matrin-3 (human, UniProt P43243-1 1-847)
T1 construct: human Matrin-3, cDNA GenBank NM_199189, inserted downstream of the GST gene in pGEX-6P-1; also called GST-fused Matrin-3; pGEX-Matrin-3; source: E. coli BL21-CodonPlus(DE3)-RIPL, purified (Glutathione Sepharose 4B); not shown: GST, N-terminal, kept
T1 sequence (looked up): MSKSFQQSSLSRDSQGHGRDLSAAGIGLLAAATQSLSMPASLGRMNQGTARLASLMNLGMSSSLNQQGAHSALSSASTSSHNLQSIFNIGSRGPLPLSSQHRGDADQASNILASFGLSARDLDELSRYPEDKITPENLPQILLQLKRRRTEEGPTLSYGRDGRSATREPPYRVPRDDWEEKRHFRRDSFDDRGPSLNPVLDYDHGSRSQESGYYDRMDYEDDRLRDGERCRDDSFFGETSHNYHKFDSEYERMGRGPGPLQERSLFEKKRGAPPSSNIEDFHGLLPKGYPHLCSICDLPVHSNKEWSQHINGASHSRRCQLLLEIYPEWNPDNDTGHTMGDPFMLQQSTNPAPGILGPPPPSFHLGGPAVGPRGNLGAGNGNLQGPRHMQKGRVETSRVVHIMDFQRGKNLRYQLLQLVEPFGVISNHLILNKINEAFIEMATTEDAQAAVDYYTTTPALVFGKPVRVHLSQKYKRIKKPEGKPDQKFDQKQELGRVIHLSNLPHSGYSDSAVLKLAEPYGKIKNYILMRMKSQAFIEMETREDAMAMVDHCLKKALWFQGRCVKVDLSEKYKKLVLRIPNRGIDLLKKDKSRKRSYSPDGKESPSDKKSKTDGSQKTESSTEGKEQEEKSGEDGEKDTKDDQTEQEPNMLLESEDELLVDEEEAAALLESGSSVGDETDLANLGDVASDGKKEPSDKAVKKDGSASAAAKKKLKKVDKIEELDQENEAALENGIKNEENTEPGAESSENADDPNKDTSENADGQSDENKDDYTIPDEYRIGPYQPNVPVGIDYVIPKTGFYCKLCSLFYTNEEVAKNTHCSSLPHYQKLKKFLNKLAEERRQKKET
Assay: pull-down; purified GST-Matrin-3 (50 ng) incubated with purified MBP-fused proteins (50 ng) in Interaction Buffer (20 mM Tris pH 8.0, 137 mM NaCl, 1.5 mM MgCl2, 1 mM EGTA, 0.1% Triton X-100, 10% glycerol), 1.5 h at 4°C; captured on Glutathione Sepharose 4B; immunoblot with anti-MBP Ab
Details: both partners purified

binding result	Binder
binds	B1
binds	B2
